Measurements from PMC11008601, “Motor properties of Myosin 5c are modulated by tropomyosin isoforms and inhibited by pentabromopseudilin” (Frontiers in Physiology, 2024).

Experiments:
Myo5c–HMM = molecular target: T1, Myo5c–HMM (Homo sapiens, UniProt Q9NQX4); assay: NADH-coupled steady-state actin-activated ATPase assay, dose-response fit; assay type: biochemical
T1 construct: heavy meromyosin fragment, residues 1-1108 (motor domain, six IQ motifs, coiled coil), C-terminal Flag tag, co-produced with light chains in baculovirus/Sf9, anti-FLAG purification; dimer; six CaM per heavy chain when co-produced with CaM only; with Calmodulin-1

[1] = molecular target: cofilaments of actin and Tpm3.1 (not stated (human β–actin or chicken α–skeletal actin prepared) | human) (UniProt P60709)
[2] = molecular target: F–actin (bare actin filaments) (not stated (human β–actin or chicken α–skeletal actin prepared)) (UniProt P60709)
[3] = molecular target: cofilaments of actin and Tpm1.6 (not stated (human β–actin or chicken α–skeletal actin prepared) | human) (UniProt P60709)
[4] = molecular target: cofilaments of actin and Tpm1.8 (not stated (human β–actin or chicken α–skeletal actin prepared) | human) (UniProt P60709)
[5] = molecular target: Myo5c–HMM heavy chain (human Myo5c, amino acids 1–1108, C-terminal Flag) (human) (UniProt Q9NQX4); assay: co-purification on anti-FLAG affinity resin, Coomassie gel and immunoblot; Myo5c–HMM-Flag co-produced with CaM, RLC (Myl12b) and ELC (Myl6) in Sf9; lysate on anti-FLAG-M2 resin 2 h at 4°C, washed with 500 mM NaCl and 2 mM ATP, then 100 mM NaCl, eluted with FLAG peptide; blot with anti-Myl12b, anti-CaM, anti-Myl6; ratios from the Coomassie-stained gel
[6] = molecular target: Myo5c–HMM heavy chain (human Myo5c, amino acids 1–1108, C-terminal Flag) (human) (UniProt Q9NQX4); assay: co-purification on anti-FLAG affinity resin, Coomassie gel and immunoblot; Myo5c–HMM-Flag co-produced with CaM alone in Sf9; lysate on anti-FLAG-M2 resin 2 h at 4°C, washed with 500 mM NaCl and 2 mM ATP, then 100 mM NaCl, eluted with FLAG peptide; blot with anti-Flag and anti-CaM; ratio from the gel
[7] = molecular target: T2, Myo5c–HMM heavy chain (human Myo5c, amino acids 1–1108, C-terminal Flag) (human, UniProt Q9NQX4 1-1108); assay: co-purification on anti-FLAG affinity resin, Coomassie gel and immunoblot; Myo5c–HMM-Flag co-produced with CaM, RLC (Myl12b) and ELC (Myl6) in Sf9; lysate on anti-FLAG-M2 resin 2 h at 4°C, washed with 500 mM NaCl and 2 mM ATP, then 100 mM NaCl, eluted with FLAG peptide; blot with anti-Myl12b, anti-CaM, anti-Myl6; ratios from the Coomassie-stained gel; details: partners not purified
T2 construct: human myosin 5c (Myo5c) heavy chain, amino acids 1-1108 (motor domain, neck with IQ motifs, part of the coiled coil), Uniprot-ID Q9NQX4; Cloned in pFastBac Dual under the polyhedrin promotor; also called heavy meromyosin fragment of the Myo5c heavy chain; source: baculovirus/Sf9, co-produced with light chains; not shown: Flag, C-terminal, kept
T2 sequence (Q9NQX4 1-1108): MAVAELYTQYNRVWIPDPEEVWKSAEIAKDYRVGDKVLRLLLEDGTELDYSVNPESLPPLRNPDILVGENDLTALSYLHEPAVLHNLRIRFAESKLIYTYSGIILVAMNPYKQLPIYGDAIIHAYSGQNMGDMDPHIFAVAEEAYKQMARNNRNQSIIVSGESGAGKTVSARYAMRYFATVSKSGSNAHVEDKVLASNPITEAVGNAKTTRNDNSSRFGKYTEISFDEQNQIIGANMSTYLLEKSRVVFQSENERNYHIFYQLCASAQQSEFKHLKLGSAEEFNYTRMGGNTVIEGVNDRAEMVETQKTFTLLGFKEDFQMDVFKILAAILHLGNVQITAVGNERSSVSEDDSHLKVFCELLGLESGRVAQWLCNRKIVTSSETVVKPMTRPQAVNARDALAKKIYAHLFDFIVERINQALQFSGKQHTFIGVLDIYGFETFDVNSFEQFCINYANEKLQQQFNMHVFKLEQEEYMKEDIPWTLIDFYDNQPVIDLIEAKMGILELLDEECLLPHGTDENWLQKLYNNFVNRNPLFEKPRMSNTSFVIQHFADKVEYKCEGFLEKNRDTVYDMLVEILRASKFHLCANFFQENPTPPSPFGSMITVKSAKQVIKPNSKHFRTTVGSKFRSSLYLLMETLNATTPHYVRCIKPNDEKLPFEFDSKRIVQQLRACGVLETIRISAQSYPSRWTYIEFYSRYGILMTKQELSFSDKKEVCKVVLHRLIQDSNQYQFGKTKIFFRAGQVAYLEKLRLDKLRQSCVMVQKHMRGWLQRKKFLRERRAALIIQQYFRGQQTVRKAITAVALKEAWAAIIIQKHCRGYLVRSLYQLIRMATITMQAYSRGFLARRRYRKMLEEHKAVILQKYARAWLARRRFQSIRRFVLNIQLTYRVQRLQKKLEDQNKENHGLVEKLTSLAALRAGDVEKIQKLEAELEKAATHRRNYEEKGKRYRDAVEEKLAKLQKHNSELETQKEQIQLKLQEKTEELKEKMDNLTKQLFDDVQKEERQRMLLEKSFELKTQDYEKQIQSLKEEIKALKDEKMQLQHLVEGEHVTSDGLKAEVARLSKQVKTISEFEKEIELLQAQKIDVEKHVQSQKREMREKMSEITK

Myo5c–HMM heavy chain (human Myo5c, amino acids 1–1108, C-terminal Flag) (human), sequence (Q9NQX4 1-1108): as above
T1 sequence (Q9NQX4 1-1108): as above

Oc1c(Br)cc(Br)cc1-c1[nH]c(Br)c(Br)c1Br [PBP, 2,3,4–tribromo–5–(3,5–dibromo–2–hydroxyphenyl)–1H–pyrrole]
IC50 (Myo5c–HMM): 0.28 ± 0.06 µM

Myo5c–HMM (CaM): Myo5c–HMM heavy chain co-produced and co-purified with calmodulin (from UniProt Q9NQX4 1-1108; P0DP23 1-149) (complex)
K (app actin) of the steady-state actin-activated ATPase (NADH-coupled assay, 30°C, 0.15 µM myosin), actin–Tpm3.1 cofilaments [1]: 5.54 µM
K (app actin) of the steady-state actin-activated ATPase (NADH-coupled assay, 30°C, 0.15 µM myosin), bare actin [2]: 5.7 µM
K (app actin) of the steady-state actin-activated ATPase (NADH-coupled assay, 30°C, 0.15 µM myosin), actin–Tpm1.6 cofilaments [3]: 2.31 µM
K (app actin) of the steady-state actin-activated ATPase (NADH-coupled assay, 30°C, 0.15 µM myosin), actin–Tpm1.8 cofilaments [4]: 3.24 µM

calmodulin (CaM) (from UniProt P0DP23 1-149) (natural protein)
stoichiometry N (light chain:heavy chain) [5]: 2
stoichiometry N (CaM per heavy chain) [6]: 6

B1: regulatory light chain Myl12b (natural protein, human (from the printed UniProt entry), UniProt O14950 1-172, looked up)
chain: MSSKKAKTKTTKKRPQRATSNVFAMFDQSQIQEFKEAFNMIDQNRDGFIDKEDLHDMLASLGKNPTDAYLDAMMNEAPGPINFTMFLTMFGEKLNGTDPEDVIRNAFACFDEEATGTIQEDYLRELLTTMGDRFTDEEVDELYREAPIDKKGNFNYIEFTRILKHGAKDKDD
notes: myosin regulatory light chain 12B (Myl12b), Uniprot-ID O14950 (a human entry); the vector was prepared as in Reindl et al., 2022; also called RLC; source: baculovirus/Sf9, co-produced with Myo5c–HMM, CaM and Myl6
stoichiometry N [7]: ~3 light chain:heavy chain

B2: essential light chain Myl6 (natural protein, human (from the printed UniProt entry), UniProt P60660 1-151, looked up)
chain: MCDFTEDQTAEFKEAFQLFDRTGDGKILYSQCGDVMRALGQNPTNAEVLKVLGNPKSDEMNVKVLDFEHFLPMLQTVAKNKDQGTYEDYVEGLRVFDKEGNGTVMGAEIRHVLVTLGEKMTEEEVEMLVAGHEDSNGCINYEAFVRHILSG
notes: myosin essential light chain Myl6, Uniprot-ID P60660 (a human entry); the vector was prepared as in Reindl et al., 2022; also called ELC; source: baculovirus/Sf9, co-produced with Myo5c–HMM, CaM and Myl12b
stoichiometry N [7]: ~1 light chain:heavy chain
